We go through 13 molecules from patent publication US20170081400A1 (CEPHALON, published 2017).

Changes are numbered by the printed parent chain.

T1: human TL1A extracellular domain with N-terminal HIS and FLAG tag (human, UniProt O95150 72-251)
T1 construct: the whole entry is named; also called TNFSF15
T1 sequence: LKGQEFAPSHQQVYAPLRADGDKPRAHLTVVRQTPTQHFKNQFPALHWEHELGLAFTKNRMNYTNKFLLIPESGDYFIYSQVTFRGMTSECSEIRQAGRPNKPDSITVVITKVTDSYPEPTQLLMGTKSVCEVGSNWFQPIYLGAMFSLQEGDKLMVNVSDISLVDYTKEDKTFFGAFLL

B1: 320-570 (antibody, human IgG1, name in Kabat numbering, V domains shown)
VH: QVQLVQSGAEVKKPGASVKVSCKASGYTFTSYDINWVRQAPGQGLEWMGWLNPNSGNTGHAQKFQGRVTMTADRSTSTAYMELSSLRSEDTAVYYCAREVPETAAFEYWGQGTLVTVSS
VL: QSVLTQPPSVSGAPGQRVTISCTSSSSDIGAGLGVHWYQQLPGTAPKLLIEGYYNRPSGVPDRFSGSKSGTSASLTITGLLPEDEGDYYCQSYDGTLSALFGGGTKLTVLG
notes: full-length human IgG1, lambda
B2: 320-577 (antibody, human IgG1, name in Kabat numbering, V domains shown)
VH: B1 VH with L51A, H60Y
VL: B1 VL
notes: as for B1
B3: 320-578 (antibody, human IgG1, name in Kabat numbering, V domains shown)
VH: B1 VH with L51Y, H60Y
VL: B1 VL
notes: as for B1
B4: 320-582 (antibody, human IgG1, name in Kabat numbering, V domains shown)
VH: B1 VH with H60W
VL: B1 VL
notes: as for B1
B5: 320-581 (antibody, human IgG1, name in Kabat numbering, V domains shown)
VH: B1 VH with H60L
VL: B1 VL
notes: as for B1
B6: 320-576 (antibody, human IgG1, name in Kabat numbering, V domains shown)
VH: B1 VH with H60Y, A61K
VL: B1 VL
notes: as for B1
B7: 320-573 (antibody, human IgG1, name in Kabat numbering, V domains shown)
VH: B1 VH with H60Y, A61Q
VL: B1 VL
notes: as for B1
B8: 320-572 (antibody, human IgG1, name in Kabat numbering, V domains shown)
VH: B1 VH with H60Y, A61S
VL: B1 VL
notes: as for B1
B9: 320-580 (antibody, human IgG1, name in Kabat numbering, V domains shown)
VH: B1 VH with G56Y, H60Y
VL: B1 VL
notes: as for B1
B10: 320-579 (antibody, human IgG1, name in Kabat numbering, V domains shown)
VH: B1 VH with N52L, H60Y
VL: B1 VL
notes: as for B1
B11: 320-574 (antibody, human IgG1, name in Kabat numbering, V domains shown)
VH: B1 VH with H60Y, A61D
VL: B1 VL
notes: as for B1
B12: 320-571 (antibody, human IgG1, name in Kabat numbering, V domains shown)
VH: B1 VH with H60K
VL: B1 VL
notes: as for B1
B13: 320-575 (antibody, human IgG1, name in Kabat numbering, V domains shown)
VH: B1 VH with H60Y, A61H
VL: B1 VL
notes: as for B1

The first experiment deals with T1, human TL1A extracellular domain with …. Description: SPR Run 7, antibody on Protein A, TL1A 5 ug/mL, timepoint 44. Summed up:
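The capture level was the response change at the end of loading, which varied by run. Antigen response was read before dissociation ended, double-referenced against a reference flow cell and a buffer blank.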
With B1, the “TL1A Binding Level (Early)” value came out at 79 RU.

As to B2, the “TL1A Binding Level (Early)” value was 98 RU.

As to B3, the “TL1A Binding Level (Early)” value was 83 RU.

As to B4, the “TL1A Binding Level (Early)” value came to 67 RU.

In the case of B5, the “TL1A Binding Level (Early)” value came to 70 RU.

In the case of B6, the “TL1A Binding Level (Early)” value is 90 RU.

As for B7, the “TL1A Binding Level (Early)” value is 67 RU.

For B8, the “TL1A Binding Level (Early)” value amounted to 98 RU.

Consider B9, for which the “TL1A Binding Level (Early)” value was found to be 51 RU.

As for B10, the “TL1A Binding Level (Early)” value is 46 RU.

With B11, the “TL1A Binding Level (Early)” value came to 140 RU.

For the molecule B12, the “TL1A Binding Level (Early)” value was determined as 78 RU.

On to B13, for which the “TL1A Binding Level (Early)” value was 121 RU.

A further experiment has the same target. Description: SPR Run 7, antibody on Protein A, TL1A 5 ug/mL, timepoint 220. Summed up: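 Biacore T200 SPR with antibody (supernatant or Protein A-purified) captured on Protein A amine-coupled to a CM5 chip; capture level recorded as response change at end of capture.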
Regarding B1, the “TL1A Binding Level (Late)” value was 72 RU.

For the molecule B2, the “TL1A Binding Level (Late)” value came out at 90 RU.

Turning to B3, the “TL1A Binding Level (Late)” value amounted to 77 RU.

Consider B4, for which the “TL1A Binding Level (Late)” value stood at 52 RU.

In the case of B5, the “TL1A Binding Level (Late)” value amounted to 65 RU.

B6: the “TL1A Binding Level (Late)” value worked out at 83 RU.

Turning to B7, the “TL1A Binding Level (Late)” value stood at 62 RU.

With B8, the “TL1A Binding Level (Late)” value was determined as 90 RU.

Regarding B9, the “TL1A Binding Level (Late)” value is 47 RU.

Regarding B10, the “TL1A Binding Level (Late)” value stood at 41 RU.

As to B11, the “TL1A Binding Level (Late)” value was found to be 130 RU.

B12: the “TL1A Binding Level (Late)” value is 72 RU.

For B13, the “TL1A Binding Level (Late)” value was 110 RU.
